This note sets out measurements from patent US20240116985A1, “STAPLED PEPTIDES AND METHODS THEREOF” (priority 2020, published 2024).

The labels stand for the following.
B1: I-2324 (peptide)
peptide: Moc-[αAllylPro]D[tBuAla][B5(3)]D[Phe(3-COOH)]AAFL[PyrS2″][Phe(2-Cl)][Bta]A-NH2
modifications: staple 1-4, 4-11
B2: I-1056 (peptide)
peptide: Azidoacetyl-[αAllylPro]D[tBuAla][B5(5)][3Thi][TfeGA]AAFN[PyrS2]D[Bta]Q-NH2
modifications: staple 1-4, 4-11; also: staple isomer unspecified: earlier eluting HPLC peak
B3: I-2322 (peptide)
peptide: Ac-[αAllylPro]D[tBuAla][B5(4)]D[Phe(3-COOH)][(bismethoxyethylamine)GlnR″]AFL[PyrS2″][2F3MeF][Bta]A-NH2
modifications: staple 1-4, 4-11
B4: I-1057 (peptide)
peptide: Azidoacetyl-[αAllylPro]D[tBuAla][B5(5)][3Thi][TfeGA]AAFN[PyrS2]D[Bta]Q-NH2
modifications: staple 1-4, 4-11; also: staple isomer unspecified: later eluting HPLC peak
B5: I-2331 (peptide)
peptide: Ac-[αAllylPro]E[tBuAla][B5(31)]NTAAFN[PyrS2″][3Thi][Bta]Q-NH2
modifications: staple 1-4, 4-11; also: staple isomer, earlier eluting HPLC peak
B6: I-2332 (peptide)
peptide: Ac-[αAllylPro]E[tBuAla][B5(31)]NTAAFN[PyrS2″][3Thi][Bta]Q-NH2
modifications: staple 1-4, 4-11
B7: I-2327 (peptide)
peptide: CO2Ph-[αAllylPro]D[tBuAla][B5(31)]D[Phe(3-COOH)]AAFL[PyrS2″][Phe(2-Cl)][Bta]A-NH2
modifications: staple 1-4, 4-11
B8: I-2333 (peptide)
peptide: Ac-[αAllylPro]N[tBuAla][B5(31)]NTAAFN[PyrS2″][3Thi][Bta]Q-NH2
modifications: staple 1-4, 4-11
B9: I-2325 (peptide)
peptide: CO2Hex-[αAllylPro]D[tBuAla][B5(31)]D[Phe(3-COOH)]AAFL[PyrS2″][Phe(2-Cl)][Bta]A-NH2
modifications: staple 1-4, 4-11
B10: I-1060 (peptide)
peptide: Azidoacetyl-[αAllylPro]D[tBuAla][B5(5)]DDAAFT[PyrS2][Phe(2-Cl)][Bta][dT]-NH2
modifications: staple 1-4, 4-11
B11: I-1058 (peptide)
peptide: Azidoacetyl-[αAllylPro]D[tBuAla][B5(5)]DDAAFN[PyrS2][3Thi][Bta][dT]-NH2
modifications: staple 1-4, 4-11
B12: I-1055 (peptide)
peptide: Azidoacetyl-[αAllylPro]D[tBuAla][B5(5)]DDAAFN[PyrS2]F[Bta]H-NH2
modifications: staple 1-4, 4-11
B13: I-2334 (peptide)
peptide: Ac-[αAllylPro]D[tBuAla][B5(31)]NTAAFT[PyrS2″][3Thi][Bta]A-NH2
modifications: staple 1-4, 4-11
B14: I-2326 (peptide)
peptide: CO2Ph-[αAllylPro]D[tBuAla][B5(31)]DDAAFQ[PyrS2″][3Thi][Bta]H-NH2
modifications: staple 1-4, 4-11

Starred links: 1 amine or outer side, 2 acyl side, 3 side chain; linkers in the order of their positions; H or OH if unused. Positions of bridges follow the written chain, without caps; N, C: chain ends. Non-standard residues stand in square brackets, D forms with d. Primed or numbered codes have the meaning given here. *: point of attachment. PyrS2″ = (S)-3-amino-1-((pent-4-en-1-yloxy)carbonyl)pyrrolidine-3-carboxylic acid (stapling residue), C=CCCCOC(=O)N1CC[C@@](N[*:1])(C(=O)[*:2])C1; B5(4) = 2,2-bis(4-pentenyl)glycine = 2-amino-2-(pent-4-en-1-yl)hept-6-enoic acid (stitching residue), C=CCCCC(CCCC=C)(N[*:1])C(=O)[*:2]; B5(5) = 2,2-bis(4-pentenyl)glycine, 2-amino-2-(pent-4-en-1-yl)hept-6-enoic acid (stitching residue), C=CCCCC(CCCC=C)(N[*:1])C(=O)[*:2]; TfeGA = (S)-2-amino-3-((carboxymethyl)(2,2,2-trifluoroethyl)amino)propanoic acid, O=C([C@H](CN(CC(=O)[*:3])CC(F)(F)F)N[*:1])[*:2]; B5(31) = 2-amino-2-(pent-4-en-1-yl)hept-6-enoic acid (bis-pentenylglycine, stitching residue), C=CCCCC(CCCC=C)(N[*:1])C(=O)[*:2]; PyrS2 = (S)-3-amino-1-((pent-4-en-1-yloxy)carbonyl)pyrrolidine-3-carboxylic acid, C=CCCCOC(=O)N1CC[C@@](N[*:1])(C(=O)[*:2])C1; (bismethoxyethylamine)GlnR″ = N5,N5-bis(2-methoxyethyl)-L-glutamine, COCCN(CCOC)C(=O)CC[C@H](N[*:1])C(=O)[*:2]; B5(3) = 2,2-bis(4-pentenyl)glycine (stitching residue), C=CCCCC(CCCC=C)(N[*:1])C(=O)[*:2]; CO2Hex = N-term cyclohexyl hydrogen carbonate, O=C(OC1CCCCC1)*; CO2Ph = N-term phenyl hydrogen carbonate, O=C(Oc1ccccc1)*; Phe(3-COOH) = N[C@@H](Cc1cccc(C(=O)O)c1)C(=O)O; 2F3MeF = Cc1cccc(C[C@H](N[*:1])C(=O)[*:2])c1F; Phe(2-Cl) = N[C@@H](Cc1ccccc1Cl)C(=O)O; Bta = N[C@@H](Cc1csc2ccccc12)C(=O)O; αAllylPro = C=CC[C@@]1(C(=O)O)CCCN1; Azidoacetyl = [N-]=[N+]=NCC(=O)*; tBuAla = CC(C)(C)C[C@H](N)C(=O)O; 3Thi = N[C@@H](Cc1ccsc1)C(=O)O; Moc = COC(=O)*

This experiment has as its target full-length beta-Catenin (Uniprot ID P35222) (Homo sapiens (Human)) (UniProt P35222). The experiment in a line: fluorescence polarization competition; full-length beta-catenin, competitor 5FAM-TCF4(10-53) probe.
Turning to B1, the IC50 came out at 83 nM. That is a double-digit nanomolar value. Consider B2, for which the EC50 amounted to 6490 nM.

On to B3, for which the IC50 amounted to 7 nM. Take B4: the EC50 came out at 6640 nM. This lies in the single-digit micromolar range. As for B5, the IC50 worked out at 10000 nM.

B6: the IC50 was 10000 nM. Take B7: the IC50 was 376 nM. The molecule B8 came in with an IC50 of 10000 nM.

B9 came in with an IC50 of 1350 nM.

B10 gave an EC50 of 38 nM. For the molecule B11, the EC50 came to 14 nM. As for B12, the EC50 was found to be 7 nM. Take B13: the IC50 came out at 656 nM. As for B14, the IC50 was determined as 185 nM.
